Measurements reported in patent US8058228B2, “Leptin peptide antagonists” (Boston Biomedical Research Institute, priority 2004, dated 2011).

Biological target: T1, IL-1R tl (Homo sapiens, UniProt P14778)
T1 construct: endogenous in cells; host or cells: Ishikawa cells
T1 sequence (P14778 18-569): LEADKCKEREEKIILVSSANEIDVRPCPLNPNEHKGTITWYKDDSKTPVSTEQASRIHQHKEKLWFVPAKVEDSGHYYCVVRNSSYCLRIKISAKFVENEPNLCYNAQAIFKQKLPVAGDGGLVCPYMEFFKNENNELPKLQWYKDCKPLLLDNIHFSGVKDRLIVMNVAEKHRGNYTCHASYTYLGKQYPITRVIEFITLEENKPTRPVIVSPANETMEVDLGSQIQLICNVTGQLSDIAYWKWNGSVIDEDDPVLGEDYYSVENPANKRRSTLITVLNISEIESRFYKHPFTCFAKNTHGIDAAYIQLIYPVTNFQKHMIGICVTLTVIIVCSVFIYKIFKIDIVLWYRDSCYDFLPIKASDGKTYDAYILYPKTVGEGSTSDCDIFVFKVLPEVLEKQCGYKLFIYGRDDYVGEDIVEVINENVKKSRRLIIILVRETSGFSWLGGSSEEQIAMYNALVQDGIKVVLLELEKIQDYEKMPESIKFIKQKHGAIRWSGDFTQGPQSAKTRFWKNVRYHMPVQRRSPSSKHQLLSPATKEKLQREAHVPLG
Assay: IL-1β and IL-1R tl inhibitors: effects on LIF-R levels in Ishikawa cells (Western blot)
Assay type: cell-based
Experimental: Primary human endometrial cells (ESC and EEC) were cultured for 5-9 days in DMEM-F12 medium containing 5% fetal bovine serum (FBS), 5 μg/ml insulin, 1% amphopthericin B, 100 μg/ml streptomycin and 100 U/ml penicillin until they were 80% confluent. Two types of endometrial epithelial cell lines, HES (originally derived from a benign proliferative endometrium) and Ishikawa (human endometrial epithelial adenocarcinoma, ECACC 9832301, Wiltshire, England) were cultured under the same conditions described above. The cells were washed twice with 100 mM phosphate saline buffer (PBS), pH 7.2 and cultured for additional 2 days in the same medium but without FBS (basal medium). Cells were washed as described before and cultured in basal medium containing leptin (0, 3, 10 or 62 nM) or IL-1β (0.6, 3 and 10 nM). […]
Endometrial cells were washed with ice-cold PBS and lysed by homogenization on ice with lysis buffer A [[…] Tris, pH 7.4, containing 137 nM NaCl, 2 mM EDTA, 10% glycerol, 50 mM β-glycerophosphate, 1% Nonidet P-40 and a mixture of proteases and phosphatase inhibitors composed of 100 μM antipain, 0.1 mg/ml trypsin inhibitor, protease inhibitor cocktail 1:50 (Sigma), 50 nM NaF, 2 mM phenyl-methylsulfonyl fluoride, and 2 mM sodium orthovanadate]. […] Protein concentrations were determined using the Bradford protein assay (BioRad Laboratories Inc., Hercules, Calif.). […]

Row | effect on leptin-induced increase in LIF-R levels (IL-1Ra 1000 pg/ml or anti IL-1R tl antibody 20 μg/ml) | LIF-R levels after IL-1β (IL-1β 3 and 10 nM, dose dependent) | Substance
1 | partially blocked | – | IL-1Ra: human recombinant IL-1 receptor antagonist (R&D Systems), inhibitor of IL-1R tl
2 | – | increased the levels of LIF-R | IL-1β: human recombinant IL-1β (R&D Systems)
